Inhibition of binding (%) and EC50 data for four molecules are collected here from patent publication US20170296650A1.

In assay [1] the target is hCMV gH (HEK293T transfectant) (hCMV), P12824. Kind of assay: cell competition; competitor 3G16-biotin. As to conditions: remark: other sources report otherwise.
For assay [2] the target is unchanged. The assay is described as follows: cell competition; competitor 13H11-biotin. As to conditions: remark: other sources report otherwise.
The target is the same in assay [3]. Kind of assay: cell competition; competitor 11B12-biotin. As to conditions: remark: other sources report otherwise.
In assay [4] the target is gB 69-78 peptide (hCMV) (UniProt P06473). The assay is described as follows: ELISA, gB 69-78 peptide.

B1: 13H11 (antibody, V domains shown)
VH: QVQLVQSGAEVKKPGASVKVSCKASGYTFTNYYIHWVRQAPGQGLEWMGIIHPSSGGTSYAQKFQGRVTMTRDTSTSTVSMDLSSLRSEDTAVYYCGRAFRILGLSDVFVNDWGQGTVVTVSS
VL: DIQMTQSPSSLSASVGDRVTITCRASQGINNYLAWYQQKPGKVPKLLIYAASTLQSGVPSRFSGSGSGTAFTLTILSLQPEDVATYYCQKYNSAPFTFGPGTKVDIK
For B1, the Inhibition of binding (%) in assay [1] was 0%; in assay [2], 100%; in assay [3], 100%.

B2: 3G16 (antibody, V domains shown)
VH: RAQLVQSAAEMKNPGASVKVSCEASGYTFTGYYVHWMRQAPGQGLEWMGWINPMTGATKSPQKFQGRVTMTRDTSTTATHIELTRLRSDDSAVFFCARGGPTSTRITGKRHFDLWGRGTLITVAS
VL: QSALTQPASVSGSPGESITISCTGTISDVGAYNSVSWYQQHSGTAPELIIYDVTNRPAGVSSRFSGSKSGNTASLTISWLQSEDEAEYYCSSYTTSDTYVFGSGTQVTVL
For B2, the Inhibition of binding (%) stood at 100% in assay [1], 0% in assay [2] and 0% in assay [3].

B3: 6B4 (antibody, V domains shown)
VH: QVQLVESGGGVVQPGRSLRLSCAASGFRFNEFNMHWVRQAPGKGLEWVAVISIDGRHKYNADSVEGRFTISRDNSRNTLYLQMNSLRVEDTALYYCVTDGKAVDGFSGILEFWGQGTPVTVST
VL: EIVLTQSPATLSLSPGERATLSCWASQSVGGYLAWYQQKPGQAPRLLIYDASIRATGIPARFSGSGSGTHFTLTINSLEPEDFAVYYCQQRNNWPPLTFGGGTKVEIK
For orientation: EC50 means the concentration at which the effect is half-maximal. Read a low EC50 as greater potency. In assay [4], B3 gave a concentration giving a half-maximal response (EC50) of 0.044 µg/mL.

B4: 11B12 (antibody, V domains shown)
VH: QMQLVQSGPQVKKPGTSVKVSCKASGFTFTSSAMQWVRQARGQRPEWIGWIVLGSGNTNYAQKFQERVTLTRDMSTATAYMELSSLRSEDTAVYYCAADRGRGGYNVYTYWGQGTLVAVSS
VL: EIVMTQSPGTLSLSPGERATLSCRASQTISNTYVAWYQQKPGQAPRLLIYGASSRATGIPDRFSGSGSGTDFTLTIRRLEPEDFAVYYCQQNGQSPWTFGQGTNVEIK
With B4, the Inhibition of binding (%) is 0% in assay [1], 100% in assay [2] and 100% in assay [3].
